From the supplement of paper PMC9112550, “Optimization of the antimicrobial peptide Bac7 by deep mutational scanning” (BMC Biology, 2022)

Tested on: Escherichia coli TOP10
Experiment: shrunken log2 fold change of peptide-encoding DNA abundance (4.5 h post-induction vs induction); higher = less antimicrobial activity (less host growth inhibition)
Details: time post-induction: 4.5 h; library: site-saturation at positions 5, 18, 19, 20
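Also: peptides expressed intracellularly from a pBAD plasmid library in pooled LB shake-flask culture, induced with 0.3% L-arabinose, DNA abundance read by NGS, three biological replicates, DESeq2 with apeglm shrinkage.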

Sequence	shrunken log2 fold change
RRIRLRPPRLPRPRPRPWTGPRP	-0.0428
RRIRRRPPRLPRPRPRPSIKPRP	2.9
RRIRIRPPRLPRPRPRPAIHPRP	-0.475
RRIRFRPPRLPRPRPRPKNYPRP	-0.525
RRIRTRPPRLPRPRPRPDWVPRP	0.0189
RRIRPRPPRLPRPRPRPASNPRP	-0.231
RRIRRRPPRLPRPRPRPLSNPRP	-0.0853
RRIRCRPPRLPRPRPRPALLPRP	0.292
RRIRKRPPRLPRPRPRPCDCPRP	-0.0743
RRIRPRPPRLPRPRPRPKPYPRP	-0.0782
RRIRWRPPRLPRPRPRPDVRPRP	-0.0136
RRIRERPPRLPRPRPRPPIKPRP	-0.414
RRIRDRPPRLPRPRPRPIKLPRP	-0.213
RRIRGRPPRLPRPRPRPEYEPRP	0.165
RRIRHRPPRLPRPRPRPDFMPRP	-0.0635
RRIRARPPRLPRPRPRPIYDPRP	-0.138
RRIRQRPPRLPRPRPRPMMDPRP	-0.137
RRIRCRPPRLPRPRPRPLQTPRP	0.443
RRIRNRPPRLPRPRPRPRVSPRP	0.0988
RRIRSRPPRLPRPRPRPGMYPRP	0.0605
RRIRNRPPRLPRPRPRPQPQPRP	-0.0877
RRIRSRPPRLPRPRPRPYKSPRP	-0.694
RRIRWRPPRLPRPRPRPRHGPRP	-0.192
RRIRDRPPRLPRPRPRPEPLPRP	0.0701
RRIRTRPPRLPRPRPRPLSCPRP	-0.000228

Sequence	shrunken log2 fold change
RRIRQRPPRLPRPRPRPTYSPRP	0.0402
RRIRSRPPRLPRPRPRPWPNPRP	-0.13
RRIRWRPPRLPRPRPRPITIPRP	-0.162
RRIRDRPPRLPRPRPRPTFRPRP	-0.0707
RRIRFRPPRLPRPRPRPRNTPRP	-0.279
RRIRHRPPRLPRPRPRPEPSPRP	0.137
RRIRHRPPRLPRPRPRPNVYPRP	-0.149
RRIRVRPPRLPRPRPRPNHRPRP	-0.199
RRIRSRPPRLPRPRPRPMGHPRP	-0.256
RRIRTRPPRLPRPRPRPAFCPRP	0.113
RRIRLRPPRLPRPRPRPQSSPRP	-0.419
RRIRTRPPRLPRPRPRPQTWPRP	-0.18
RRIRCRPPRLPRPRPRPLGTPRP	-0.583
RRIRKRPPRLPRPRPRPHADPRP	0.0566
RRIRLRPPRLPRPRPRPIDKPRP	-0.122
RRIRYRPPRLPRPRPRPPMVPRP	-0.35
RRIRYRPPRLPRPRPRPVFKPRP	-0.238
RRIRVRPPRLPRPRPRPDKWPRP	-0.151
RRIRARPPRLPRPRPRPTEAPRP	0.453
RRIRKRPPRLPRPRPRPEWDPRP	0.12
RRIRHRPPRLPRPRPRPQREPRP	-0.0507
RRIRQRPPRLPRPRPRPLCWPRP	-0.0481
RRIRQRPPRLPRPRPRPDFTPRP	-0.134
RRIRERPPRLPRPRPRPTYDPRP	-0.528
RRIRQRPPRLPRPRPRPDPTPRP	0.119

Sequence	shrunken log2 fold change
RRIRARPPRLPRPRPRPEQHPRP	0.562
RRIRKRPPRLPRPRPRPDVSPRP	-0.382
RRIRIRPPRLPRPRPRPFIEPRP	-0.848
RRIRNRPPRLPRPRPRPFYFPRP	-0.718
RRIRGRPPRLPRPRPRPEEEPRP	0.107
RRIRPRPPRLPRPRPRPQKDPRP	-0.132
RRIRPRPPRLPRPRPRPAFIPRP	-0.222
RRIRCRPPRLPRPRPRPKSGPRP	0.017
RRIRIRPPRLPRPRPRPRSEPRP	-0.0944
RRIRFRPPRLPRPRPRPFHQPRP	-0.192
RRIRPRPPRLPRPRPRPSGTPRP	0.669
RRIRQRPPRLPRPRPRPHYSPRP	-0.0998
RRIRCRPPRLPRPRPRPCTCPRP	-0.583
RRIRCRPPRLPRPRPRPIHAPRP	-0.0479
RRIRQRPPRLPRPRPRPEDFPRP	-0.0175
RRIRVRPPRLPRPRPRPFPNPRP	0.038
RRIRWRPPRLPRPRPRPIICPRP	-0.523
RRIRERPPRLPRPRPRPRCTPRP	-0.0287
RRIRVRPPRLPRPRPRPKTKPRP	0.0179
RRIRDRPPRLPRPRPRPHPWPRP	0.114
RRIRTRPPRLPRPRPRPYYDPRP	-0.24
RRIRCRPPRLPRPRPRPHNLPRP	-0.592
RRIRHRPPRLPRPRPRPRNLPRP	0.0727
RRIRARPPRLPRPRPRPAHIPRP	0.241
RRIRCRPPRLPRPRPRPGLYPRP	-0.432

Sequence	shrunken log2 fold change
RRIRRRPPRLPRPRPRPDLHPRP	0.308
RRIRDRPPRLPRPRPRPRHRPRP	0.375
RRIRNRPPRLPRPRPRPRHPPRP	0.136
RRIRDRPPRLPRPRPRPNSFPRP	-0.0585
RRIRSRPPRLPRPRPRPSWMPRP	-0.0505
RRIRSRPPRLPRPRPRPPADPRP	0.981
RRIRPRPPRLPRPRPRPVPIPRP	0.0844
RRIRMRPPRLPRPRPRPTQIPRP	0.386
RRIRDRPPRLPRPRPRPGTDPRP	0.341
RRIRMRPPRLPRPRPRPYHSPRP	-0.0421
RRIRERPPRLPRPRPRPFRKPRP	-0.534
RRIRERPPRLPRPRPRPNFAPRP	0.387
RRIRGRPPRLPRPRPRPCCDPRP	0.769
RRIRSRPPRLPRPRPRPEKAPRP	-0.193
RRIRDRPPRLPRPRPRPEEAPRP	2.05
RRIRDRPPRLPRPRPRPPHWPRP	0.322
RRIRWRPPRLPRPRPRPIKTPRP	0.00902
RRIRPRPPRLPRPRPRPSYPPRP	-0.181
RRIRTRPPRLPRPRPRPPGSPRP	0.00863
RRIRFRPPRLPRPRPRPTNPPRP	-0.0887
RRIRERPPRLPRPRPRPNYLPRP	-0.0974
RRIRPRPPRLPRPRPRPTWIPRP	0.184
RRIRWRPPRLPRPRPRPTQDPRP	0.755
RRIRNRPPRLPRPRPRPNLEPRP	0.0441
RRIRRRPPRLPRPRPRPMQYPRP	-0.126

Sequence	shrunken log2 fold change
RRIRYRPPRLPRPRPRPTRFPRP	0.0879
RRIRGRPPRLPRPRPRPNISPRP	0.231
RRIRIRPPRLPRPRPRPPCKPRP	-0.422
RRIRPRPPRLPRPRPRPAMRPRP	0.973
RRIRLRPPRLPRPRPRPDCIPRP	0.185
RRIRARPPRLPRPRPRPRKKPRP	0.404
RRIRYRPPRLPRPRPRPHWDPRP	-0.92
RRIRNRPPRLPRPRPRPHWPPRP	0.0957
RRIRLRPPRLPRPRPRPQQHPRP	-0.212
RRIRYRPPRLPRPRPRPNLDPRP	-0.148
RRIRSRPPRLPRPRPRPQTMPRP	-0.35
RRIRRRPPRLPRPRPRPQICPRP	-0.0654
RRIRFRPPRLPRPRPRPTTWPRP	0.0564
RRIRMRPPRLPRPRPRPQDQPRP	0.228
RRIRARPPRLPRPRPRPRPMPRP	0.771
RRIRSRPPRLPRPRPRPYWNPRP	0.503
RRIRWRPPRLPRPRPRPTNCPRP	-0.0666
RRIRGRPPRLPRPRPRPCYQPRP	0.219
RRIRERPPRLPRPRPRPHPMPRP	-0.334
RRIRKRPPRLPRPRPRPREQPRP	0.609
RRIRGRPPRLPRPRPRPQVVPRP	0.0944
RRIRIRPPRLPRPRPRPNFEPRP	-0.218
RRIRPRPPRLPRPRPRPSYAPRP	-0.106
RRIRRRPPRLPRPRPRPMYHPRP	-0.159
RRIRRRPPRLPRPRPRPDDVPRP	0.0443
